Measured values: the supplement of paper PMC9170038

Test system: K4 kissing-loop RNA reporter
Assay: apparent KD of K4 kissing-loop reporter; higher = weaker reporter binding
Settings: Eterna round: R107
Description: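 RNA-MaP round R107: designed RNA switches with theophylline, tryptophan, arginine or FMN aptamers are transcribed on-chip within common flanks. They are titrated with a labelled K4 kissing-loop RNA reporter in RNA-MaP buffer (100 mM Tris pH 7.5, 80 mM KCl, 4 mM MgCl2), without ligand or with the indicated ligand. Median apparent KD per design.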

[1] = input ligand: theophylline 20 uM
[2] = input ligand: tryptophan 2.4 mM
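Note: bound reporter read as fluorescence of individual clusters on recovered sequencing chips by microscopy, with normalized cluster intensities fitted with a binding model.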

Sequence	apparent KD of K4 kissing-loop reporter (input ligand: FMN 200 uM)	apparent KD of K4 kissing-loop reporter (input ligand: arginine 13.2 mM)	apparent KD of K4 kissing-loop reporter (input ligand: none)	apparent KD of K4 kissing-loop reporter [1]	apparent KD of K4 kissing-loop reporter [2]
GGUCCGCACAUGAGUGAUGUUCAUGUAGAUACCAGUAUCGAAAGAUACCCUUGGCAGCUACGGCACGGACCGGCGGGAAACCGCC	213 nM	200 nM	194 nM	291 nM	184 nM
GGUCCGGGCUCGGCCGCCACUCCCUCCUGCCGCAAGGUGGGAUACCGAGUGAUGUUCGGUUGGAGGAGGACCGGGAGCCCGGACC [#2 Exclusion - Tryptophan B Attempt #14 (HarryS)]	115 nM	124 nM	121 nM	133 nM	118 nM
GGUGGACUAGUCGAGUGAUGUUCGAGGCAUCGAGGACCGGUACGGCCGCCACUCGCAAAUCUACCGUGCGUUAACCACCAAAGUG [theeternabot_sameState_KL_Trp_A_37]	295 nM	152 nM	304 nM	317 nM	344 nM
GGUGUUGUUUGUGCUGUUUUCCUCGUUUCUCGAGGACCGGUACGGCCGCCACUCGAGUGAUGUUUGGGUAGCGAUCCUUGUUAGU [Bdazzled - #6 Exc. Tryptophan A]	335 nM	215 nM	313 nM	272 nM	383 nM
GGUUCGAGUGAUGUUCGGGUCGAUUGGGAAGGAGCGCCCGGAAGGGCAGGUAGGUCGCCCGGGCCGCGCGGGAAACCGCGCGUCC [#2 Same State - Arginine A Attempt #7 (HarryS)]	216 nM	121 nM	175 nM	147 nM	144 nM
GGUUCUGGAAUCGAGUGAUGUUCGGUGUUGCAGGAUAUAGAGAGAUCUAGAAGGGCAGUUUGUAUUUUAUUGAGUGAUUUUCUUU [Last Minute #3]	84 nM	83.1 nM	106 nM	106 nM	93.4 nM
GGUUGAAGUACCCGGAGUGAUGUUCCGGAUACCAGCAAACCAACUUGCCCUUGGCAGCCGUAUAGCGUCCGGUGGACCGAGCAUA [Soriesreve]	98.5 nM	70.3 nM	77.4 nM	76.2 nM	78.7 nM
GGUUUAUAGGAGGAUACCAGUACGGAUAAAGUACGUUAAUAGUAGAGUGAUGUUCUAAAGUACCCUUGGCAGCUUAGAUUAAGUU [ExTheophylB.J]	72 nM	142 nM	106 nM	110 nM	64.4 nM
GUACGCUCUCGAGUGAUGUUCGGUAAUCCUUAGGAUAUCGCUUUUGCGAGAAGGAAGGGAAUGAGGAAACUCGUUCUGAGUGUAC [FMN A 21]	523 nM	299 nM	366 nM	481 nM	743 nM
GUACGCUUCCGAGUGAUGUUCGGUAAUAGUUAGGAUAUCGUUUUUUCGAGAAGGAACUGAAUGAGGAAACUCGUUCGAAGUGUAC [FMN A 16]	395 nM	266 nM	380 nM	424 nM	266 nM
GUAGACAGGCUGCGAACCUAGUCUACAGACUAGGAUAUCAGGAAACUGAGAAGGAGUCUAGUUGCAGUGAUGUUGCAAGAAUAAU [KL-SSFMN-A25]	81.3 nM	125 nM	94.6 nM	135 nM	84.7 nM
GUAGGAUGAGGAGGAGGAUGAAUUACUGAAGGAGCGCAUAUUUUUGCAGGUAGGUCGCGGUAAAGAAGUAUAGUGAUGUUAUAUA [SSArgA.J]	410 nM	434 nM	381 nM	624 nM	304 nM
GUAGUUGCGCAAGGAUAUUAGUUAAGUGAUGUUUGAUUCGGUAUUGUUUACGUACACUGACCCGAUUAAGAAGGUGCGGGCAGCG [theeternabot_exclusion_KL_FMN_B_50]	604 nM	582 nM	580 nM	343 nM	369 nM
GUAUGUGGAAACACGUACUUGUAUCCUAAGCAGGAUAUGCGGAAACGCAGAAGGGCUACCAGCGAGUUUAUCCAGUGAUGUUGGA [Ex FMN A 12]	289 nM	235 nM	269 nM	264 nM	288 nM
GUCCAACCUGGAGGAUAUCUGCUGUCCAGUGAUGUUGGACACUUUAGUAAAGGCCGGGUAGCCCGCAGAGAAGGCCGGAGUUGCC [Arceer]	310 nM	328 nM	375 nM	464 nM	327 nM
GUCCCGAGUGAUGUUCGGGUCGUUUGGGAAGGAGCGCCCGGAAGGGCAGGUAGGUCGCCCGGACCGUGCAGGUAACUGUGCGGCC [#2 Same State - Arginine A Attempt #18 (HarryS)]	176 nM	146 nM	181 nM	196 nM	178 nM

Sequence	apparent KD of K4 kissing-loop reporter (input ligand: FMN 200 uM)	apparent KD of K4 kissing-loop reporter (input ligand: arginine 13.2 mM)	apparent KD of K4 kissing-loop reporter (input ligand: none)	apparent KD of K4 kissing-loop reporter [1]	apparent KD of K4 kissing-loop reporter [2]
GUGCAGUGAUGUUGCACGAGGAAAGACGAUACCAGCCGUAAAUAAGGCCCUUGGCAGCGUGGACUAGCAUAAAGUAUGCUAGCCU [Isenaonle]	118 nM	104 nM	123 nM	116 nM	96.5 nM
GUGCGCGCGGCGGCCGCCACUCGCAUGAGAGUGAUGUUCUUGCCCGGGCCGCAAGGCCCGGGUGUGAGGACCGGGCCGGGCUGCG [#2 Same State - Tryptophan B Attempt #26 (HarryS)]	115 nM	1.09 nM	180 nM	0.148 nM	425 nM
GUUACUUCAGAAGGAUAUUAGUAAACAACACGGUAGUGAUGUUACCGUUAUCAAGCCCGGCUUCACUAAGAAGGUCUCCACCGCG [theeternabot_sameState_KL_FMN_B_23]	52 nM	67.9 nM	52.9 nM	70 nM	54.1 nM
GUUCGGAUGCGGGAUACCAGCGUACCGAGCAAGCUUCGGGUAGUGAUGUUAUCUGAAUUACGCCCUUGGCAGCCCGCAUCCGGGC [clock_plus]	265 nM	234 nM	285 nM	212 nM	256 nM
GUUUGGCGGGCGGCCGCCACUCGGACGAGUCGCAGUGAUGUUGUGGUUUGCCAGUCGUCUUCAUCGAGGACCGGGUUUGUCGGGC [Exclusion Tryptophan B GF 19]	495 nM	380 nM	600 nM	571 nM	496 nM
UAAACCAAAUUACGUCACCUUGUCCAAUCUAAGGAUAUGUGAUUCCACAGAAGGUAGCCACGGGAGUGAUGUUCGCGUUAAGGCG [theeternabot_exclusion_KL_FMN_A_31]	475 nM	388 nM	465 nM	460 nM	419 nM
UAACUUGCAGUGAUGUUGCAAGAACUGGAUACCAGCAUGGAAACAUGCCCUUGGCAGCCAGAAGCUGGCUGACUGCAAGGUCAGC [Design4]	148 nM	142 nM	124 nM	136 nM	123 nM
UAAGAGGACCACUGCAAGAGUCCUCGAAUACGAGGACCGGUACGGCCGCCACUCGAUAACUUGCAGUGAUGUUGCAAGUAAGAAU [(T)''-(K)'-(T)'-(T1)-(T2)-(K1)-(K2)_Design1]	124 nM	129 nM	119 nM	144 nM	84.4 nM
UAAUAUAAUCUGUCGUAAACAAUAAUUAGUCAGGAUAUCGUAUAUUCGAGAAGGGACACUAUCUAGUGAUGUUAGAUAUUUCGUU [JR_SSFMNA_Sub026]	45.5 nM	76.4 nM	53.4 nM	67.5 nM	47.6 nM
UAAUAUAAUCUGUCGUUUACAAUAUUUAGUCAGGAUAUCGUAUAUUCGAGAAGGGACACUAUCUAGUGAUGUUAGAUAUUUCGUU [JR_ExcFMNA_Sub015]	51 nM	81.4 nM	59.6 nM	76.6 nM	54.6 nM
UAAUCCUAGUGAUAAUUAUCAAGUGGUGGGCGAGGACCGGUACGGCCGCCACUCGAAUAUGCAGUGAUGUUGUAAUCCGGAUAAU [Exclusion - Tryptophan A (Freestyle 7)]	639 nM	636 nM	534 nM	715 nM	441 nM
UAAUGCAUGACGGCCGCCACUAGUACUGGAGUGAUGUUGUGGUACGGCGGCAGUUUAGGGUGGACUAGGACCGGGUCAUGCAUAU [KL-XTryp-B10 #analogue]	461 nM	314 nM	339 nM	305 nM	356 nM
UAGAGAUCGAGAAGGAGCGAGAAAGCUAGUACAUAUGUACUAGCAAAGCAGUGAUGUUGCACUCAGGUAGGUCGCUCGAUCUCAU [AK1.1 SS Arginine B]	337 nM	267 nM	366 nM	432 nM	305 nM
UAGAGCAUCGCAGGAUAUCCUGCUUAACGUUGGAUUCCAGUGAUGUUGGAAAGCCGGCCUAGGGUAGGAGAAGGGCGGAUUUGAA [Edvean]	171 nM	151 nM	215 nM	322 nM	149 nM
UAGUAGCUCUCGGCCGCCACUCCUCAGUGAUGUUGAGAUAUUAAGAGCCAAUUGGCUCAUAUAAAGAGGACCGGGAGAGCUACAU [AK4.2 SS Tryptophan B]	355 nM	339 nM	365 nM	350 nM	126 nM
UAGUAGUAGCGAGGAUAUGCAAUAGGCGAGUGAUGUUCGCCAGGCGGGCGUCGCAUAUAAGAAAGAGCAGAAGGCGCUAGGUAGA [SameState - FMN B / A]	814 nM	303 nM	329 nM	397 nM	399 nM
